From the supplement of paper PMC11875167

Test: observed amide hydrogen exchange rate constant kobs (stretched exponential fit, FD-normalized) (s^-1); higher = faster H/D exchange (less protection)
Conditions: pH 3 (pH read); temperature: 20 °C; D2O: 88%
How it was run: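 Uptake curves were fitted to a stretched single exponential with β = 0.8, and kobs, the observed exchange rate constant, is the fitted rate. The data came from Jurkat tryptic peptides (LysC/trypsin, carbamidomethylated cysteines) labeled in 88% D2O at pHread 3, 20 °C, then quenched with 0.23% formic acid at 13 times from 18 to 93,600 s in processing triplicates. MS1 uptake from a Q-Exactive HF, analyzed in HDExaminer with no back-exchange correction, was normalized to full-deuteration controls (24 h, 37 °C).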

| Substance | observed amide hydrogen exchange rate constant kobs |
| --- | --- |
| FSELTAEK | 0.00148 |
| FSGWYDADLSPAGHEEAK | 0.00239 |
| FSHEEIAMATVTALRR | 0.000978 |
| FTQAGSEVSALLGR | 0.00109 |
| FVADGIFK | 0.00103 |
| FVSISDLLVPK | 0.000665 |
| FYEAFSK | 0.00122 |
| GADFLVTEVENGGSLGSK | 0.00147 |
| GAEAANVTGPGGVPVQGSK | 0.00103 |
| GALQNIIPASTGAAK | 0.000988 |
| GAVDGGLSIPHSTK | 0.00225 |
| GCITIIGGGDTATCCAK | 0.00119 |
| GDEEGVPAVVIDMSGLR | 0.00109 |
| GDEELDSLIK | 0.000999 |
| GDGPVQGIINFEQK | 0.000693 |
| GEATVSFDDPPSAK | 0.00157 |
| GEENLMDAQVK | 0.00185 |
| GEGQLGPAER | 0.0023 |
| GEMMDLQHGSLFLR | 0.00161 |
| GFGFILFK | 0.000667 |
| GFGFVDFNSEEDAK | 0.00238 |
| GFGFVLFK | 0.000656 |
| GFGFVTYATVEEVDAAMNARPHK | 0.00098 |
| GFSTWLK | 0.000875 |

| Substance | observed amide hydrogen exchange rate constant kobs |
| --- | --- |
| GGGQIIPTAR | 0.000898 |
| GGSDGYGSGR | 0.00404 |
| GHYTEGAELVDSVLDVVRK | 0.00131 |
| GIAYIEFK | 0.00091 |
| GIGYLK | 0.00124 |
| GILAADESTGSIAK | 0.00166 |
| GIVDQSQQAYQEAFEISK | 0.000918 |
| GLAPDLPEDLYHLIK | 0.00112 |
| GLFIIDDK | 0.00107 |
| GLSEDTTEETLK | 0.003 |
| GLTPSQIGVILR | 0.00062 |
| GLTSVINQK | 0.000815 |
| GLVGEIIK | 0.000569 |
| GNFGGSFAGSFGGAGGHAPGVAR | 0.00196 |
| GNPTVEVDLFTSK | 0.000833 |
| GNSIIMLEALERV | 0.00109 |
| GPDGLTAFEATDNQAIK | 0.00114 |
| GPSSVEDIK | 0.00156 |
| GRGARGGKAEDK | 0.00275 |
| GSYGDLGGPIITTQVTIPK | 0.000771 |
| GTGIVSAPVPK | 0.00104 |
| GTLDPVEK | 0.00116 |
| GVNLPGAAVDLPAVSEK | 0.0011 |
| GVVDSEDLPLNISR | 0.0013 |

| Substance | observed amide hydrogen exchange rate constant kobs |
| --- | --- |
| GVVPLAGTNGETTTQGLDGLSER | 0.00156 |
| GYDVIAQAQSGTGK | 0.00126 |
| GYFEYIEENK | 0.00229 |
| GYISPYFINTSK | 0.000598 |
| GYSFTTTAER | 0.00184 |
| HALIIYDDLSK | 0.00058 |
| HAVSEGTK | 0.00263 |
| HEHQVMLMR | 0.00145 |
| HELLQPFNVLYEK | 0.00104 |
| HFVALSTNTTK | 0.00117 |
| HIADLAGNSEVILPVPAFNVINGGSHAGNK | 0.00138 |
| HIYYITGETK | 0.00121 |
| HLEINPDHPIVETLR | 0.00133 |
| HLEINPDHSIIETLR | 0.00155 |
| HLQLAIRNDEELNK | 0.00184 |
| HQEGEIFDTEK | 0.0025 |
| HQGVMVGMGQK | 0.00127 |
| HQPTAIIAK | 0.00045 |
| HSQFIGYPITLYLEK | 0.000606 |
| HWPFMVVNDAGRPK | 0.00131 |
| HYGGLTGLNK | 0.00221 |
| IACLDFSLQK | 0.000643 |
| IAIYELLFK | 0.000527 |
| IDEPLEGSEDR | 0.00298 |

| Substance | observed amide hydrogen exchange rate constant kobs |
| --- | --- |
| IDFYFDENPYFENK | 0.00186 |
| IDNSQVESGSLEDDWDFLPPKK | 0.00156 |
| IDTIEIITDR | 0.000965 |
| IEDGNNFGVAVQEK | 0.00127 |
| IEDLSQQAQLAAAEK | 0.0009 |
| IEDVTPIPSDSTR | 0.00154 |
| IEEELGSK | 0.00244 |
| IETIEVMEDR | 0.00148 |
| IEVIEIMTDR | 0.00104 |
| IFGGLDMLAEK | 0.00145 |
| IFGVTTLDIVR | 0.000765 |
| IFVGGLNPEATEEK | 0.00108 |
| IGAEVYHNLK | 0.0019 |
| IGEHTPSALAIMENANVLAR | 0.000813 |
| IGFPWSEIR | 0.000936 |
| IGLFGGAGVGK | 0.000762 |
| IGPLGLSPK | 0.000838 |
| IHFPLATYAPVISAEK | 0.000691 |
| IHPVSTMVK | 0.000804 |
| IIAPPERK | 0.00142 |
| IIDVVYNASNNELVR | 0.00138 |
| IILDLISESPIK | 0.000711 |
| IINEPTAAAIAYGLDK | 0.000776 |
| IISSIEQK | 0.00126 |

| Substance | observed amide hydrogen exchange rate constant kobs |
| --- | --- |
| IITLTGPTNAIFK | 0.000716 |
| IIWQFIK | 0.000404 |
| IKGEHPGLSIGDVAK | 0.00174 |
| ILATPPQEDAPSVDIANIR | 0.00103 |
| ILDSVGIEADDDRLNK | 0.0024 |
| ILEFFGLK | 0.00112 |
| ILGLLDAYLK | 0.00089 |
| ILQDGGLQVVEK | 0.000978 |
| ILTFDQLALDSPK | 0.000724 |
| IMATPEQVGK | 0.000917 |
| IMNTFSVVPSPK | 0.000631 |
| INISEGNCPER | 0.000833 |
| IQLINNMLDK | 0.00081 |
| IREEYPDR | 0.00399 |
| IRYESLTDPSK | 0.00212 |
| ISVVSTK | 0.000812 |
| ISVYYNEATGGK | 0.00138 |
| ITLPVDFVTADKFDENAK | 0.0013 |
| IVEMSTSK | 0.00206 |
| IWDLEGK | 0.00103 |
| IWHHTFYNELR | 0.00224 |
| IYVDDGLISLQVK | 0.000841 |
